Test system: p16

Question: For CDK2, which “RB phosphorylation by CDK2-cyclin D2 complexes” value is on record?
Answer: The value was “No inhibition was observed when CDK2-cyclin D2 complexes were used in a similar assay”.
